Tests used:
[1] = target: T1, SARS-CoV-2 receptor binding domain (RBD) (SARS-CoV-2, UniProt P0DTC2 319-591); assay: BLI: mAb on anti-human Fc probe, dipped in the antigen
[2] = target: T1, SARS-CoV-2 receptor binding domain (RBD); assay: BLI; mAb loaded on anti-human Fc probe, dipped in antigen
[3] = target: T1, SARS-CoV-2 receptor binding domain (RBD); assay: BLI: mAb on anti-human Fc probe, dipped in the antigen; remark: listed apart in the source
[4] = target: T1, SARS-CoV-2 receptor binding domain (RBD); assay: BLI, mAb on anti-human Fc probe, antigen in solution
[5] = target: T1, SARS-CoV-2 receptor binding domain (RBD); assay: BLI: mAb on anti-human Fc probe, dipped in the antigen; remark: listed apart in the source
[6] = target: T1, SARS-CoV-2 receptor binding domain (RBD); assay: as above; remark: listed apart in the source
[7] = target: T1, SARS-CoV-2 receptor binding domain (RBD); assay: as above; remark: listed apart in the source
[8] = target: T1, SARS-CoV-2 receptor binding domain (RBD); assay: BLI, mAb on anti-human Fc probe, antigen in solution; remark: listed apart in the source
[9] = target: T1, SARS-CoV-2 receptor binding domain (RBD); assay: BLI: mAb on anti-human Fc probe, dipped in the antigen; remark: listed apart in the source

B1: CV2-52 (antibody, V domains shown)
VH: QVQLVESGGGVVQPGRSLRLSCAASGFTFSSYAMHWVRQAPGKGLEWVAVISYDGINKYYADSVKGRFTISRDSSKNTLYLQMNSLRAEDTAVYYCARGGVGYQLLFGNDWFDPWGQGTLVTVSS
VL: QSALTQPASVSGSPGQSITISCTGTSSDVGGYNYVSWYQQHPGKAPKLMIYEVSNRPSGVSNRFSGSKSGNTASLTISGLQAEDESDYYCSSYTTSSTLYVFGTGTKVTVL
Does B1 bind [1]?
Result: no binding

B2: CV2-66 (antibody, V domains shown)
VH: EVQLVESGGGLVQPGRSLRLSCTASGFTFGDYAMSWFRQAPGKGLEWVGFIRSKAYGGTTEYAASVKGRFTISRDDSKSIAYLQMNSLKTEDTAVYYCTRVHHCSGGSCYGYYFDYWGQGTLVTVSS
VL: EIVMTQSPATLSVSPGERATLSCRASQSVSSNLAWYQQKPGQAPRLLIYGASTRATGIPARFSGSGSGTEFTLTISSLQSEDFAVYYCQQYNNWVTFGGGTKVEIK
Does B2 bind [2]?
Result: binds

B3: CV2-75 (antibody, V domains shown)
VH: QVQLQESGPGLVKPSETLSLTCTVSGGSISSYYWSWIRQPPGKGLEWIGYVYYSGSTNYNPSLKSRVTISVDTSKNEFSLKLSSVTAADTAVYYCASSQRPDGNLYYFDYWGQGTLVTVSS
VL: SYVLTQPPSVSVAPGQTARITCGGNNIGSKTVHWYQQKPGQAPVLVVYDDSDRPSGIPERFSGSNSGNTATLTISRVEAGDEADYYCQVWDSSSDHYVFGTGTKVTVL
Does B3 bind [2]?
Result: binds

B4: CV2-48 (antibody, V domains shown)
VH: QLQLQESGPGLVKPSETLSLTCTVSGGSISSSSYYWGWIRQPPGKGLEWIGNIYYSGITYYNPSLKSRVTISVDTSKNQFSLKLSSVTAADTAVYYCARQLWGYYDSSGYYAFDIWGQGTMVTVSS
VL: QSALTQPASVSGSPGQSITISCTGTSSDVGSYNLVSWYQQHPGKAPKLMIYEGSKRPSGVSNRFSGSKSGNTASLTISGLQAEDEAAYYCCSYVGSSTYVVFGGGTKLTVL
Does B4 bind [3]?
Result: binds

B5: CV11 (antibody, V domains shown)
VH: QVQLQESGPGLVKPSQTLSLTCTVSGGSISSGGYYWSWIRQHPGKGLEWIGYIYYSGSTYYNPSLKSRVTISVDTSKNQFSLKLSSVTAADTAVYYCARETTGHFDYWGQGTLVTVSS
VL: EIVLTQSPATLSLSPGERATLSCRASQSVSSYLAWYQQKPGQAPRLLIYDASNRATGIPARFSGSGSGTDFTLTISSLEPEDFAVYYCQQRSNWPPIFTFGPGTKVDIK
Does B5 bind [4]?
Result: no binding

B6: CV2-57 (antibody, V domains shown)
VH: QVQLVQSGAEVKKPGASVKVSCKASGYNFISYGISWVRQAPGQGLEWMGWISAYNGNTNYAQKLQGRVTMTTDTSTSTAYMELRSLRSDDTAVYYCARVRIFGVVIIVDTAMVLDYWGQGTLVTVSS
VL: EIVLTQSPATLSLSPGERATLSCRASQSVSSYLAWYQQKPGQAPRLLIYDASNRATGIPARFSGSGSGTDFTLTISSLEPEDFAVYYCQQRSNWPPRLTFGGGTKVEIK
Does B6 bind [5]?
Result: no binding

B7: CV2-54 (antibody, V domains shown)
VH: QVQLVQSGAEVKKPGSSVKVSCKASGGTFSSYTISWVRQAPGQGLEWMGGIIPIFGTANYAQNFQGRVTITADESTSTAYMELSSLRSEDTAVYYCARVSYYDSSGYYTDYWGQGTLVTVSS
VL: EIVLTQSPATLSLSPGERATLSCRASQSVSSFLAWYQQKPGQAPRLLIYDASNRATGIPARFSGSGSGTDFTLTINSLEPEDFAVYYCQQRSNWPPEYTFGQGTKLEIK
Does B7 bind [6]?
Result: no binding

B8: CV2-53 (antibody, V domains shown)
VH: QVQLVQSGAEVKKPGSSVKVSCKASGGTFTSYAITWVRQAPGQGLEWMGGIIPIFGTANYAQKFQGRVTITADESTSTAYMELSSLRSEDTAVYYCARVGAYDSSGYYQDLWGRGTLVTVSS
VL: EIVLTQSPATLSLSPGERATLSCRASQSVSSYLAWYQQKPGQAPRLLIYDASNRATGIPARFSGSGSGTDFTLTISSLEPEDFAVYYCQQRSNWPPVITFGQGTRLEIK
Does B8 bind [7]?
Result: no binding

B9: CV1 (antibody, V domains shown)
VH: QVQLQESGPGLVKPSETLSLTCTVSGYSISSGYYWGWIRQPPGKGLEWIGSIYHSGSTYYNPSLKSRVTISVDTSKNQFSLKLSSVTAADTAVYYCARTPLSLRLRYNWYFDLWGRGTLVTVSS
VL: not shown
notes: expressed as IgG
Does B9 bind [8]?
Result: no binding

B10: CV43 (antibody, V domains shown)
VH: QVQLVESGGGVVQPGRSLRLSCAASGFTFSSYAMHWVRQAPGKGLEWVAVISYDGSNKYYADSVKGRFTISRDNSKNTLYLQMNSLRAEDTAVYYCARVTVVHFDYWGQGTLVTVSS
VL: NFMLTQPHSVSESPGKTVTISCTGSSGSIASNYVQWYQQRPGSAPTTVIYEDNQRPSGVPDRFSGSIDSSSNSASLTISGLKTEDEADYYCQSYDSSNWVFGGGTKLTVL
Does B10 bind [2]?
Result: binds

B11: CV2-56 (antibody, V domains shown)
VH: QVQLVESGGGVVQPGNSLRLSCVASGFKFSSSAMHWVRQAPGKGLEWVAIIWFHGNTKFYGDFVKGRFTVSRDNSNNTLHLQMNSLRAEDTAVYHCARASSDYGGAFDIWGQGTMVTVSS
VL: EIVMTQSPATLSVSLGERATLSCRASQSVTSSLAWYQHKPGQAPRLLIYGASTRATGIPARFSGSGSGTEFTLTISSLQSEDFAVYFCQQYNNWPPWTFGQGTKVEVT
Does B11 bind [9]?
Result: no binding

B12: CV5 (antibody, V domains shown)
VH: QVQLVQSGAEVKKPGASVKVTCKASGYTFTSYYLHWVRQAPGQGLEWMGIINPSGGTTSYAQKFQGRVTMTRDTSTSTVYMELSSLRSEDTAVYYCARAGRRYSSSDDGAFDIWGQGTMVTVSS
VL: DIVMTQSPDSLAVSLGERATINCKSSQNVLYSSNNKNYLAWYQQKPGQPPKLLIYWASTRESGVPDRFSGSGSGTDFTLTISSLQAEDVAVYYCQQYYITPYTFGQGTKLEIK
Does B12 bind [2]?
Result: binds

B13: CV2-65 (antibody, V domains shown)
VH: QVQLQESGPGLVKPSETLSLTCTVSGGSISSYYWSWIRQPAGKGLEWIGRIYTSGSTNYNPSLKSRVTMSVDTSKNQFSLKLSSVTAADTAVYYCAREDSYGSGSTGAFDIWGQGTMVTVSS
VL: SYELTQPPSVSVSPGQTARITCSGDALPKQYAYWYQQKPGQAPVLVIYKDSERPSGIPERFSGSSSGTTVTLTISGVQAEDEADYYCQSADSSGTYVFGTGTKVTVL
Does B13 bind [2]?
Result: binds

B14: CV30 (antibody, V domains shown)
VH: EVQLVESGGGLIQPGGSLRLSCAASGVIVSSNYMSWVRQAPGKGLEWVSVIYSGGSTYYADSVKGRFTISRDNSKNTLYLQMNSLRAEDTAVYYCARDLDVSGGMDVWGQGTTVTVSS
VL: not shown
Does B14 bind [2]?
Result: binds

B15: CV2-71 (antibody, V domains shown)
VH: EVQLLESGGGLGQPGGSLRLSCAASGFTFSNYAMSWVRQAPGKGLEWVSVISGSGGSTYYADSVKGRFTISRDNSKNTLYLQMNSLRAEDTAVYYCAKAGAVGYYDSNGYYYDVDYYYGMDVWGQGTTVTVSS
VL: QSVLTQPPSVSGAPGQRVTISCTGSSSNIGAGYDVHWYQQLPGTAPKLLIYGNSNRPSGVPDRFSGSKSGTSASLAITGLQAEDEADYYCQSYDSSLSGYVFGTGTKVTVL
Does B15 bind [2]?
Result: binds

B16: CV2-41 (antibody, V domains shown)
VH: QVQLQQWGAGLLKPSETLSLTCAVYGGSFSGYYWSWIRQPPGKGLEWIGEINHSGSTNYNPSLKSRVTISVDTSTNQFSLKLSSVTAADTAVYYCARRVHYDILTGFYGGALITRAFDIWGQGTMVTVSS
VL: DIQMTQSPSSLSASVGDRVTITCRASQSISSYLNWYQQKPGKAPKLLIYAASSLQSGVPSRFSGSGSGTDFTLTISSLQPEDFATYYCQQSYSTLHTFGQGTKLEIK
Does B16 bind [2]?
Result: binds

B17: CV2-7 (antibody, V domains shown)
VH: EVQLVQSGAEVKKPGESLKISCKGSGNSFTSYWIGWVRQMPGKGLEWMGIIYPGDSDTRYSPSFQGQVTISADKSISTAYLQWSSLKASDTAMYYCARHRNYDILTGYRYYFDYWGQGTLVTVSS
VL: not shown
Does B17 bind [2]?
Result: binds
